Experimental data taken from publication PMC4066749, “A sequence-based approach for prediction of CsrA/RsmA targets in bacteria with experimental validation in Pseudomonas aeruginosa”.

What was measured:
RsmA [1] = molecular target: T1, RsmA (UniProt O69078 1-61); experiment: ITC; 298 K; 1:1 single-site fit; 50 mM NaCl, 25 mM potassium phosphate pH 7.0; ITC at 298 K (125 uM RNA into 5-10 uM protein); SEC on Superdex 75 with 50 uM protein and 25 uM RNA, temperature not stated; details: protein: recombinant; tags: His tag; chain copies: 2; hairpin
RsmA-R44A [2] = molecular target: T2, RsmA-R44A (UniProt O69078 1-61, R44A); experiment: analytical SEC; binding virtually eliminated; 50 uM protein, 25 uM RNA; 50 mM NaCl, 25 mM potassium phosphate pH 7.0; ITC at 298 K (125 uM RNA into 5-10 uM protein); SEC on Superdex 75 with 50 uM protein and 25 uM RNA, temperature not stated; details: protein: recombinant; chain copies: 2; hairpin
RsmA [3] = molecular target: T1, RsmA; experiment: analytical SEC; 50 uM protein, 25 uM RNA; details: protein: recombinant; tags: His tag; chain copies: 2; unstructured
RsmA-R44A [4] = molecular target: T2, RsmA-R44A; experiment: analytical SEC; no significant interaction, RNA largely unbound; details: protein: recombinant; chain copies: 2; unstructured

Binder	Kd (RsmA [1]) [nM]	binding result (RsmA-R44A [2])	binding result (RsmA [3])	binding result (RsmA-R44A [4])
CCCCGAAGGAUCGGGG (structured_RNA) [RsmZ-2 (RsmZ stem-loop 2)]	276 ± 25	no binding	–	–
GAAGAGGAGCUUUCAUG (ssRNA) [algU RBS RNA]	–	–	binds	no binding
